Consider two molecules from article doi:10.1101/709196 (bioRxiv, 2019).

What is called stoichiometry N is a count of units in the complex or per binding partner.

The target in one data set is SS-EGFP-SUN2^261-731 (UniProt Q8BJS4). Briefly: dual-color fluorescence fluctuation spectroscopy.
Data set [1] deals with the molecule itself. Briefly: dual-color fluorescence fluctuation spectroscopy.

With “mCherry-SR-KASH2 (from UniProt Q6ZWQ0 1-6874) (domain or fragment)”, the normalized brightness br (mCherry labels per complex) at Nr:Ng above 4:1 with SS-EGFP-SUN2^261-731 stood at 3. The stoichiometry N with SS-EGFP-SUN2^261-731 (scale: mCherry-SR-KASH2 per SS-EGFP-SUN2^261-731) was < 1.

B1: SS-EGFP-SUN2^261-731 (domain or fragment, UniProt Q8BJS4 261-731, looked up)
chain: SWWAAKESRKQPEVWESRDASQHFQAEQRVLSRVHSLERRLEALAADFSSNWQKEAIRLERLELRQGAAGHGGGSSLSHEDALSLLEGLVSRREATLKEDLRRDTVAHIQEELATLRAEHHQDSEDLFKKIVQASQESEARVQQLKTEWKSMTQEAFQESSVKELGRLEAQLASLRQELAALTLKQNSVADEVGLLPQKIQAARADVESQFPDWIRQFLLGDRGARSGLLQRDEMHAQLQELENKILTKMAEMQGKSAREAAASLGQILQKEGIVGVTEEQVHRIVKQALQRYSEDRIGMVDYALESGGASVISTRCSETYETKTALLSLFGIPLWYHSQSPRVILQPDVHPGNCWAFQGPQGFAVVRLSARIRPTAVTLEHVPKALSPNSTISSAPKDFAIFGFDEDLQQEGTLLGTFAYDQDGEPIQTFYFQASKMATYQVVELRILTNWGHPEYTCIYRFRVHGEPAH
With B1, the “stoichiometry N” value in data set [1] was 3.
